B1: CrcA (PA1677), His-tag removed (natural protein)
chain: MPHPLTLLQISGRGYPPAPLRQSTLLIIDAQEEYRSGALRLPGLDAAAAEIGVLVQAARASGTPIVHVRHLGIQGGLFDPQGPRGQFLPELQPEAGEKVVEKRLPNAFSGTELHDLLQNHGRLDLIVCGFMTHSSVSTTVRAAKDYGYRCTLADSACATRDIPTLNGGVLSAADLQRAEIAALGDNFAAIVAQARELL
B2: Crc (catabolite repression control protein), His-tag removed (natural protein)
chain: MRIISVNVNGIQAAAERGLLSWLQAQNADVICLQDTRASAFDLDDPSFQLDGYFLYACDAELPEQGGVALYSRLQPKAVISGLGFETADRYGRYLQADFDKVSIATLLLPSGQSGDESLNQKFKFMDDFTHYLSKQRRKRREYIYCGSLYVAHQKMDVKNWRECQQMPGFLAPERAWLDEVFGNLGYADALREVSREGDQFSWWPDSEQAEMLNLGWRFDYQVLTPGLRRFVRNAKLPRQPRFSQHAPLIVDYDWQLSI

What was measured:
[1] = molecular target: Strep-CrcA (Strep-PA1677; catabolite repression control protein antagonist) (Pseudomonas aeruginosa PAO1); test: SEC-MALS; Strep-CrcA; experimental mass compared with the expected mass of a dimer
[2] = molecular target: B1; test: grating-coupled interferometry; CrcA immobilised by amine coupling (9.5 ng/mm^2); Crc 20 μM to 156.25 nM; ES-buffer, 25°C; heterogeneous ligand model
[3] = molecular target: B1; test: grating-coupled interferometry; CrcA immobilised (9.5 ng/mm^2); Crc 20 μM to 156.25 nM; ES-buffer, 25°C; equilibration curve analysis
[4] = molecular target: B2; test: immobilized CrcA; kd2 heterogeneous ligand, second site
[5] = molecular target: Crc (catabolite repression control protein), His-tag removed (Pseudomonas aeruginosa PAO1) (UniProt Q51380); test: grating-coupled interferometry; Crc immobilised (15 pg/mm^2); CrcA 20 μM to 156.25 nM; ES-buffer, 25°C; equilibration curve analysis
[6] = molecular target: B2; test: immobilized CrcA; kd1 heterogeneous ligand
[7] = molecular target: B2; test: immobilized CrcA; KD2 heterogeneous ligand, second site
[8] = molecular target: Crc (catabolite repression control protein), His-tag removed (Pseudomonas aeruginosa PAO1) (UniProt Q51380); test: grating-coupled interferometry; Crc immobilised by amine coupling (15 pg/mm^2); CrcA 20 μM to 156.25 nM; ES-buffer, 25°C; 1:1 kinetic fit
[9] = molecular target: T1, PAO1 Hfq protein, purified (Pseudomonas aeruginosa PAO1, UniProt Q9HUM0 1-82); test: Hfq in complex with amiE6ARN RNA; kd1 heterogeneous ligand
T1 chain: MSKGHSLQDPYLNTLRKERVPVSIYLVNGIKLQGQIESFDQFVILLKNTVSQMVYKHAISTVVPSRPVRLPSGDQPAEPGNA

[10] = molecular target: T1, PAO1 Hfq protein, purified; test: Hfq in complex with amiE6ARN RNA; KD1 heterogeneous ligand
[11] = molecular target: B1; test: immobilized Crc
[12] = molecular target: T1, PAO1 Hfq protein, purified; test: Hfq in complex with amiE6ARN RNA; kd2 heterogeneous ligand, second site

## Strep-CrcA (Strep-PA1677; catabolite repression control protein antagonist) (natural protein)
[1]
  stoichiometry N: 2

## Crc (catabolite repression control protein), His-tag removed (from UniProt Q51380 1-259) (natural protein)
[2]
  KD1: 8.35 µM
[3]
  Kd: 7.14 µM

## B1
[4]
  koff: 0.0454 s⁻¹
[5]
  Kd: 12 µM
[6]
  koff: 0.653 s⁻¹
[7]
  Kd: 3.93 µM
[8]
  Kd: 11 µM

## B2
[9]
  koff: 0.374 s⁻¹
[10]
  Kd: 0.402 µM
[11]
  koff: 2.45 s⁻¹
[12]
  koff: 0.00786 s⁻¹
